Source: patent US20150361176A1 (GlaxoSmithKline, published 2015)
Positions count from the first letter of the chain named. In names and notes the source's numbering stands.

B1: DOM23h-271-123 (VHH)
VHH: EVQLLESGGGLVQPGGSLRLSCAASGSTFTEYRMWWVRQAPGKGLEWVSAIEPIGHRTYYADSVKGRFTISRDNSKNTLYLQMNSLRAEDTAVYYCAKQAPGEKWARRWDLDYWGQGTLVTVSS
notes: expressed from pC10
B2: DOM23h-271-129 (VHH)
VHH: B1 VHH with G102N, E103Q, K104R, W105Y, A106V, R107A, W109G, D110R
notes: expressed from pC10
B3: DOM23h-271-130 (DOM23h-271-123 + C-terminal Alanine) (VHH)
VHH: B1 VHH
notes: human VH dAb
B4: DOM23h-271-133 (DOM23h-271-123 + C-terminal Alanine + 61N64R) (VHH)
VHH: B1 VHH with D62N, K65R
notes: human VH dAb
B5: DOM23h-271-132 (DOM23h-271-123 + C-terminal Alanine + 64R) (VHH)
VHH: B1 VHH with K65R
notes: human VH dAb
B6: DOM23h-271-131 (DOM23h-271-123 + C-terminal Alanine + 61N) (VHH)
VHH: B1 VHH with D62N
notes: human VH dAb
B7: DOM23h-439-25 (VHH)
VHH: EVQLLESGGGLVQPGGSLRLSCAASGFTFGTEQMWWVRQAPGKGLEFVSRIDSPGGRTYYADSVKGRFTISRDNSKNTLYLQMNSLRAEDTAVYYCAKRRPTGVSGTFYDYWGQGTLVTVSS
notes: expressed from pC10
B8: DOM23h-439-40 (DOM23h-439-25 + C-terminal Alanine) (VHH)
VHH: B7 VHH
notes: human VH dAb
B9: DOM23h-439-41 (DOM23h-439-25 + C-terminal Alanine + 48I) (VHH)
VHH: B7 VHH with V48I
notes: human VH dAb
B10: DOM23h-439-44 (DOM23h-439-25 + C-terminal Alanine + 61N64R) (VHH)
VHH: B7 VHH with D62N, K65R
notes: human VH dAb
B11: DOM23h-439-42 (DOM23h-439-25 + C-terminal Alanine + 61N) (VHH)
VHH: B7 VHH with D62N
notes: human VH dAb
B12: DOM23h-439-43 (DOM23h-439-25 + C-terminal Alanine + 64R) (VHH)
VHH: B7 VHH with K65R
notes: human VH dAb
B13: DOM23h-439-35 (VHH)
VHH: B7 VHH with E32D, D62N, R100Q, T102A, T107K, F108Y, Y109V
notes: expressed from pC10
B14: DOM23h-271 mutant 1A2 (R at 61, A at 64) (VHH, name in Kabat numbering)
VHH: EVQLLESGGGLVQPGGSLRLSCAASGFTFTEYRMWWVRQAPGKGLEWVSAIEPIGNRTYYARSVAGRFTISRDNSKNTLYLQMNSLRAEDTAVYYCAKQIPGRKWTANSRFDYWGQGTLVTVSS
notes: human VH dAb; expressed from pDOM13
B15: DOM23h-271 mutant 1E6 (R at 61, Y at 64) (VHH, name in Kabat numbering)
VHH: B14 VHH with A65Y
notes: human VH dAb; expressed from pDOM13; also called RY
B16: DOM23h-271 mutant 1G11 (R at 61, M at 64) (VHH, name in Kabat numbering)
VHH: B14 VHH with A65M
notes: human VH dAb; expressed from pDOM13; also called RM
B17: DOM23h-271 mutant 3D9 (K at 61, G at 64) (VHH, name in Kabat numbering)
VHH: B14 VHH with R62K, A65G
notes: human VH dAb; expressed from pDOM13; also called KG
B18: DOM23h-271 mutant 1H11 (L at 61, W at 64) (VHH, name in Kabat numbering)
VHH: B14 VHH with R62L, A65W
notes: human VH dAb; expressed from pDOM13; also called LW
B19: DOM23h-271 mutant 1D5 (K at 61, F at 64) (VHH, name in Kabat numbering)
VHH: B14 VHH with R62K, A65F
notes: human VH dAb; expressed from pDOM13; also called KF
B20: DOM23h-271 mutant 3F11 (R at 61, E at 64) (VHH, name in Kabat numbering)
VHH: B14 VHH with A65E
notes: human VH dAb; expressed from pDOM13; also called RE
B21: DOM23h-271 mutant 1D9 (R at 61, D at 64) (VHH, name in Kabat numbering)
VHH: B14 VHH with A65D
notes: human VH dAb; expressed from pDOM13; also called RD
B22: DOM23h-271 mutant 2C12 (D61N, K64R) (VHH, name in Kabat numbering)
VHH: B14 VHH with R62N, A65R
notes: human VH dAb; expressed from pDOM13; also called NR
B23: DOM23h-271 mutant 1B11 (R at 61, V at 64) (VHH, name in Kabat numbering)
VHH: B14 VHH with A65V
notes: human VH dAb; expressed from pDOM13; also called RV
B24: DOM23h-271 mutant 1B2 (V at 61, W at 64) (VHH, name in Kabat numbering)
VHH: B14 VHH with R62V, A65W
notes: human VH dAb; expressed from pDOM13; also called VW
B25: DOM23h-271 mutant 3D4 (K at 61, T at 64) (VHH, name in Kabat numbering)
VHH: B14 VHH with R62K, A65T
notes: human VH dAb; expressed from pDOM13; also called KT

Biological target: human TGF-βRII on cells (SBE-bla HEK 293T cells; A549 cells) (human, UniProt P37173 23-567)
Sequence (P37173 23-567): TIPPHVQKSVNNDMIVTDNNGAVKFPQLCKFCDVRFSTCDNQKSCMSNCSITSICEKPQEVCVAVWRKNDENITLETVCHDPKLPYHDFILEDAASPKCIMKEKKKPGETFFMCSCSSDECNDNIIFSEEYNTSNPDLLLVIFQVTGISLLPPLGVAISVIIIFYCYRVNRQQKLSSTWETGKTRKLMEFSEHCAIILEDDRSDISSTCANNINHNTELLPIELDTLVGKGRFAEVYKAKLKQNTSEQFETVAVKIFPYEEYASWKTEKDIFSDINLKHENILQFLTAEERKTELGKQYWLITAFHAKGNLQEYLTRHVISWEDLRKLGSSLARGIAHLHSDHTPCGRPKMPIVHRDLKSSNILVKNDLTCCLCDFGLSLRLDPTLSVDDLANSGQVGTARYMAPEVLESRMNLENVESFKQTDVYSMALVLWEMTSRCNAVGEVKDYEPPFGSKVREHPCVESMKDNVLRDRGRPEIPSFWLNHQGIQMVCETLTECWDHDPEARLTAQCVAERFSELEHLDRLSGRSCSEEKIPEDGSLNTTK
Test: cell-based or functional assay

Binder | IC50 nM, Mean (SBE-bla HEK 293T cell sensor assay)
B1 | 18.3 nM
B2 | 22.7 nM
B3 | 37 nM
B4 | 2.4 nM
B5 | 21 nM
B6 | 6.3 nM
B7 | 4 nM
B8 | 14 nM
B9 | 1.7 nM
B10 | 1.3 nM
B11 | 0.7 nM
B12 | 1 nM
B13 | 0.5 nM

Biological target: T1, recombinant human TGF-β RII/Fc chimera protein (human, UniProt P37173 24-159)
T1 construct: range 24-159; Made in HEK-F cells; Biotinylated where it was put on SA chips, otherwise captured by anti-human IgG; also called human TGFbRII/Fc; hRII-Fc; not shown: Fc region of human IgG1
T1 sequence (P37173 24-159 limits assumed, change not shown): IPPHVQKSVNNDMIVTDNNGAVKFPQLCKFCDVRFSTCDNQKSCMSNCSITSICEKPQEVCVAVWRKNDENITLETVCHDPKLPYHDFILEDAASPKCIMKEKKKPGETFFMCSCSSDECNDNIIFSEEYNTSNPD
Test: SPR Biacore T200, receptor-Fc captured by anti-human IgG, dAb as analyte, 1:1 model
Method: (§1) Anti-human IgG was immobilised on a Biacore CM4 chip by primary amine coupling according to the manufacturer's instructions. Human TGF-β RII/Fc, cynomolgus TGF-β RII/Fc or human Fc fragment were captured on this surface. Domain antibodies were passed over the two captured receptors at 3 concentrations of 100, 10 and 1 nM (DOM23h-439 dAbs) or 100, 25 and 6.25 nM (DOM23h-271 dAbs). Only the 100 nM concentration of each dab was passed over human Fc fragment to confirm specificity of binding to the extracellular TGF-β RII domain. An injection of buffer over the captured antigen surface was used for double referencing. […] All runs were carried out at 25° C. using HBS-EP buffer as running buffer. Data were generated using the BIACORE™ T200 and fitted to the 1:1 binding model inherent to the software. […] The DOM23h-271 dAbs and the DOM23h-439 lineages were run in separate experiments.

Binder | Kd | koff | kon
B1 | 0.102 nM | 0.000293 s⁻¹ | 2.89e+06 M⁻¹ s⁻¹
B2 | 0.0741 nM | 0.000411 s⁻¹ | 5.55e+06 M⁻¹ s⁻¹
B3 | 0.123 nM | 0.000309 s⁻¹ | 2.51e+06 M⁻¹ s⁻¹
B4 | 0.00909 nM | 7.7e-05 s⁻¹ | 8.47e+06 M⁻¹ s⁻¹
B5 | 0.0182 nM | 0.000222 s⁻¹ | 1.22e+07 M⁻¹ s⁻¹
B6 | 0.0217 nM | 0.000136 s⁻¹ | 6.26e+06 M⁻¹ s⁻¹
B7 | 0.0817 nM | 0.000634 s⁻¹ | 7.77e+06 M⁻¹ s⁻¹
B8 | 0.104 nM | 0.00139 s⁻¹ | 1.34e+07 M⁻¹ s⁻¹
B9 | 0.0104 nM | 0.000187 s⁻¹ | 1.81e+07 M⁻¹ s⁻¹
B10 | 0.00289 nM | 6.91e-05 s⁻¹ | 2.39e+07 M⁻¹ s⁻¹
B11 | 0.0032 nM | 0.000131 s⁻¹ | 4.09e+07 M⁻¹ s⁻¹
B12 | 0.0423 nM | 0.000373 s⁻¹ | 8.83e+06 M⁻¹ s⁻¹
B13 | 0.00983 nM | 0.000222 s⁻¹ | 2.26e+07 M⁻¹ s⁻¹

Biological target: T2, cynomolgus TGF-β RII/Fc (cynomolgus)
T2 construct: extracellular domain; also called Cyno TGFBRII; Cyno TGFbRII
Test: as above
Method: as §1

Binder | Kd | koff | kon
B1 | 0.104 nM | 0.00032 s⁻¹ | 3.08e+06 M⁻¹ s⁻¹
B2 | 0.0712 nM | 0.000427 s⁻¹ | 6e+06 M⁻¹ s⁻¹
B3 | 0.124 nM | 0.000324 s⁻¹ | 2.61e+06 M⁻¹ s⁻¹
B4 | 0.00985 nM | 8.71e-05 s⁻¹ | 8.84e+06 M⁻¹ s⁻¹
B5 | 0.0185 nM | 0.000238 s⁻¹ | 1.29e+07 M⁻¹ s⁻¹
B6 | 0.0212 nM | 0.000144 s⁻¹ | 6.81e+06 M⁻¹ s⁻¹
B7 | 0.304 nM | 0.00273 s⁻¹ | 8.99e+06 M⁻¹ s⁻¹
B8 | 0.366 nM | 0.00342 s⁻¹ | 9.34e+06 M⁻¹ s⁻¹
B9 | 0.0333 nM | 0.000522 s⁻¹ | 1.57e+07 M⁻¹ s⁻¹
B10 | 0.00677 nM | 0.000147 s⁻¹ | 2.17e+07 M⁻¹ s⁻¹
B11 | 0.011 nM | 0.00041 s⁻¹ | 3.72e+07 M⁻¹ s⁻¹
B12 | 0.149 nM | 0.0012 s⁻¹ | 8.04e+06 M⁻¹ s⁻¹
B13 | 0.0291 nM | 0.000675 s⁻¹ | 2.32e+07 M⁻¹ s⁻¹

Biological target: T1, recombinant human TGF-β RII/Fc chimera …
Test: SPR Biacore A100, antigen-Fc captured by anti-human IgG, purified dAb, 1:1 model
Method: BIACORE™ A100 analysis was carried out using a capture surface on a CM5 chip. Anti-human IgG was used as the capturing agent and coupled to a CM5 biosensor chip by primary amine coupling. The Antigen molecule fused to the human Fc was captured on this immobilised surface to a level from 200 to 300 resonance units and supernatants or purified domain antibodies were passed over this captured surface. An injection of media or buffer over the captured antigen surface was used for double referencing. On each flow cell, a protein A spot allowed to confirm the presence of domain antibody on each sample injected. […] All runs were carried out at 25° C. using HBS-EP buffer as running buffer. Data were generated using the BIACORE™ A100 and analyzed using its inherent software. Kinetics from purified samples were fitted to the 1:1 binding model while supernatant off-rates were analyzed using the 1:1 dissociation model and/or using the binding level and the stability level of each sample in comparison to the parent molecule.
A selection of mutants with improved off-rate were purified and subjected to full BIACORE™ A100 kinetic analysis to determine their affinity (Table 10). The thermal stability of the mutants was also determined by generation of melting profiles in the presence of SYPRO™ Orange (Invitrogen). Briefly, the purified dAbs were diluted to 50 and 100 ug/ml in a 1:500 dilution of SYPRO™ Orange in PBS, and subjected to a 30-90° C. melt curve in a Mini OPTICON™ PCR machine (BioRad). The Tm of the major positive transition was determined at each concentration and used to calculate an estimated Tm value at 1 mg/ml as an indication of the melting temperature for comparison (Table 10).

Binder | Kd
B14 | 2.24 nM
B15 | 1.17 nM
B16 | 0.97 nM
B17 | 4.34 nM
B18 | 4.17 nM
B19 | 3.69 nM
B20 | 3.27 nM
B21 | 1.17 nM
B22 | 3.34 nM
B23 | 1.88 nM
B24 | 1.79 nM
B25 | 4.26 nM
